Biological target: anti-SKL-reactive polypeptides
Assay: co-IP

B1: Pay32p (natural protein)
chain: MSFMRGGSECSTGRNPLSQFTKHTAEDRSLQHDRVAGPSGGRVGGMRSNTGEMSQQDREMMARFGAAGPEQSSFNYEQMRHELHNMGAQGGQIPQVPSQQGAANGGQWARDFGGQQTAPGAAPQDAKNWNAEFQRGGSPAEAMQQQGPGPMQGGMGMGGMPMYGMARPMYSGMSANMAPQFQPQQANARVVELDEQNWEEQFKQMDSAVGKGKEVEEQTAETATATETVTETETTTEDKPMDIKNMDFENIWKNLQVNVLDNMDEWLEETNSPAWERDFHEYTHNRPEFADYQFEENNQFMEHPDPFKIGVELMETGGRLSEAALAFEAAVQKNTEHAEAWGRLGACQAQNEKEDPAIRALERCIKLEPGNLSALMNLSVSYTNEGYENAAYATLERWLATKYPEVVDQARNQEPRLGNEDKFQLHSRVTELFIRAAQLSPDGANIDADVQVGLGVLFYGNEEYDKAIDCFNAAIAVRPDDALLWNRLGATLANSHRSEEAIDAYYKALELRPSFVRARYNLGVSCINIGCYKEAAQYLLGALSMHKVEGVQDDVLANQSTNLYDTLKRVFLGMDRRDLVAKVGNGMDVNQFRNEFEF
Binder B1 has a percent of Pay32p present in the complex of 84.6%.
